Reference: IntAct's records for PubMed 28683311

Assays:
limd1_human LIMD1 [1] = molecular target: limd1_human LIMD1 (UniProt Q9UGP4)
limd1_human LIMD1 [2] = molecular target: limd1_human LIMD1 (UniProt Q9UGP4); remark: listed apart in the source
limd1_human LIMD1 [3] = molecular target: limd1_human LIMD1 (UniProt Q9UGP4); remark: listed apart in the source
tnr6a_human TNRC6A = tnr6a_human TNRC6A (UniProt Q8NDV7)
Sequence of tnr6a_human TNRC6A (Q8NDV7 whole entry): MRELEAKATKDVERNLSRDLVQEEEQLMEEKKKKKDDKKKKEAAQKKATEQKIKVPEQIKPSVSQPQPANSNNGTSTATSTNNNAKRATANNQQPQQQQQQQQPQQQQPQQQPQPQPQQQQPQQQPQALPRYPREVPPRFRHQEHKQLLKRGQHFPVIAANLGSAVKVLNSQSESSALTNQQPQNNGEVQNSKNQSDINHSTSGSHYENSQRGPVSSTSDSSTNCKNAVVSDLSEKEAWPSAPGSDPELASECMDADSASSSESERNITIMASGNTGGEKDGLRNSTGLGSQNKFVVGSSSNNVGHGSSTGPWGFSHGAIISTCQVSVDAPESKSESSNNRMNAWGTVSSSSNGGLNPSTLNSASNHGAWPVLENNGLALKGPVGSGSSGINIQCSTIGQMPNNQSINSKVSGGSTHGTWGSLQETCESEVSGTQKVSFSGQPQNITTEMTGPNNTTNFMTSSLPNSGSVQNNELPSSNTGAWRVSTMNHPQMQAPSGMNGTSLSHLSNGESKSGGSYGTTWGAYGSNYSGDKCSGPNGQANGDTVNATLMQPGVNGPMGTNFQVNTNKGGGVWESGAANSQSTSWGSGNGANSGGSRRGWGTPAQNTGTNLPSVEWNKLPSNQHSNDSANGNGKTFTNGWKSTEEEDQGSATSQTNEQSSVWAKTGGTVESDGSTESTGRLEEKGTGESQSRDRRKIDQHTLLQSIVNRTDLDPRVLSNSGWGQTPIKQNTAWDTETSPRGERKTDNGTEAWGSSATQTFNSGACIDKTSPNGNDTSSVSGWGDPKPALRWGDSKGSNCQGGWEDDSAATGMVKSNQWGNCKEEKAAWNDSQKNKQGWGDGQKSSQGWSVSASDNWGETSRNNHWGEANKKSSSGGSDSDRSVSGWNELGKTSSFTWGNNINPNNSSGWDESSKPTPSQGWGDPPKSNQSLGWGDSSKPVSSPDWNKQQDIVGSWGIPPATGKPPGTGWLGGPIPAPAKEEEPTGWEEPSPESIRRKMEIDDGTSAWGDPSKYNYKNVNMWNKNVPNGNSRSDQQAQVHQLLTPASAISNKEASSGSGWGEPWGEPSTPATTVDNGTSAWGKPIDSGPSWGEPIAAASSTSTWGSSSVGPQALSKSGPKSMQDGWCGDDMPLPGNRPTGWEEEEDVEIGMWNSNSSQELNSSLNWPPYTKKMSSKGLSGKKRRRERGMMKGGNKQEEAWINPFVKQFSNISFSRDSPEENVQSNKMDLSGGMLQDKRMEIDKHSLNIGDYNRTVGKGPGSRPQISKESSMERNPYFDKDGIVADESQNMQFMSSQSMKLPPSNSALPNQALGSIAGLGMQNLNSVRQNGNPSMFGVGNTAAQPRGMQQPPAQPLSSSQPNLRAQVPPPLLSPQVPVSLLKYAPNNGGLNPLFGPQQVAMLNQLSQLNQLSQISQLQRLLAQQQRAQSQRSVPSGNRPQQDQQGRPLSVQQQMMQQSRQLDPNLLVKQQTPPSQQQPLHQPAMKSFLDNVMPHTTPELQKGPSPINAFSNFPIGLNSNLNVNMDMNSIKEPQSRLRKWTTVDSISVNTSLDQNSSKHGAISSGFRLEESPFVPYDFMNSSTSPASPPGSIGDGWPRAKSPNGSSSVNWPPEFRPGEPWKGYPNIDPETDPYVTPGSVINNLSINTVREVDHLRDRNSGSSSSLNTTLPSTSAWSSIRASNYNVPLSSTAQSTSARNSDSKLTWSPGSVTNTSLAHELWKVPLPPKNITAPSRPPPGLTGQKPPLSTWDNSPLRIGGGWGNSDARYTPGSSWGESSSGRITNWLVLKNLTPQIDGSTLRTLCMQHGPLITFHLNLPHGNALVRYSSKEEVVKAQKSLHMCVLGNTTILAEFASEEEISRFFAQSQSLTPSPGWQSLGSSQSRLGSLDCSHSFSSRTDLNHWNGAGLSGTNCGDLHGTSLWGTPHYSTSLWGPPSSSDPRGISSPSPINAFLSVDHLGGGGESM

Sequence of limd1_human LIMD1 (Q9UGP4 whole entry): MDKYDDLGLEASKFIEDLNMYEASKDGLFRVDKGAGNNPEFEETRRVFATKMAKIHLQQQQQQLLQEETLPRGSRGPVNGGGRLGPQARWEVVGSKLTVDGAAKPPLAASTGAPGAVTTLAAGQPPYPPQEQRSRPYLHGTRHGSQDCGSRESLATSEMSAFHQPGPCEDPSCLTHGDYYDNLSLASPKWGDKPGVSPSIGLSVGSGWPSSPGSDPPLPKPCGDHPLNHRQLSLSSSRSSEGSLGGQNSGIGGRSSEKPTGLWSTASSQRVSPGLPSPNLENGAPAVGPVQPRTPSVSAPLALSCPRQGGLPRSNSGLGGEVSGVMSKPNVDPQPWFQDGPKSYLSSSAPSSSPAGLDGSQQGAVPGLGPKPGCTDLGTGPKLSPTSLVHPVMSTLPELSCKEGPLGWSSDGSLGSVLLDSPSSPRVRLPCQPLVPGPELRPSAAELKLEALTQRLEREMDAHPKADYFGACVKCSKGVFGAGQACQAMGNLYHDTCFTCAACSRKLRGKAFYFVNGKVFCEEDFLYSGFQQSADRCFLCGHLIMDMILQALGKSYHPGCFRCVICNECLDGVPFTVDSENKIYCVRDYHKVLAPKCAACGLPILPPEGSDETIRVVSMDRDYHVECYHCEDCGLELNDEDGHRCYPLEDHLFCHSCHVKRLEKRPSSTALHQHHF

Substance: Protein argonaute-4 (Homo sapiens) (from UniProt Q9HCK5) S377E
- effect of a mutation on the interaction (limd1_human LIMD1 [1]): with no effect

Substance: Protein argonaute-4 (Homo sapiens) (from UniProt Q9HCK5) S377A
- effect of a mutation on the interaction (limd1_human LIMD1 [1]): decreasing interaction strength

Substance: Protein argonaute-2 (Homo sapiens), Q9UKV8 S387E
- effect of a mutation on the interaction (limd1_human LIMD1 [2]): with no effect
- effect of a mutation on the interaction (limd1_human LIMD1 [3]): increasing interaction strength

Substance: Protein argonaute-2 (Homo sapiens), Q9UKV8 S387A
- effect of a mutation on the interaction (tnr6a_human TNRC6A): with no effect
- effect of a mutation on the interaction (limd1_human LIMD1 [3]): decreasing interaction strength
